Test in all cases: NMR HSQC titration
Series [1] addresses T1, TDP-43 CTD WT (Homo sapiens, UniProt Q13148 267-414).
The target of series [2] is T1, TDP-43 CTD WT. This is another data set of the same source.
In series [3] the target is T1, TDP-43 CTD WT. This is another data set of the same source.
In series [4] the target is T1, TDP-43 CTD WT. This is another data set of the same source.
The target of series [5] is T1, TDP-43 CTD WT. The source holds these as a separate data set.
Series [6] deals with T1, TDP-43 CTD WT. The source holds these as a separate data set.
For series [7], the target named is T1, TDP-43 CTD WT. This is another data set of the same source.

Like-named read-outs stand apart in the source and are kept apart here.

T1 sequence (Q13148 267-414): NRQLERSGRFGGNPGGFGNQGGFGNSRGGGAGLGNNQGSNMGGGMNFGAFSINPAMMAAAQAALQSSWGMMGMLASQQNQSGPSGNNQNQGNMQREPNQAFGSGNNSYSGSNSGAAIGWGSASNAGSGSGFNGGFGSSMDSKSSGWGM

In the case of AAAAAAAAAAAA (ssDNA) [dA12], the binding result with TDP-43 CTD WT [1] was “binds”.

As to GGGGGGGGGGGG (structured_DNA) [dG12], in the series with TDP-43 CTD WT [2], the binding result is “binds”.

CCCCCCCCCCCC (structured_DNA) [dC12]: in the series with TDP-43 CTD WT [2], the binding result is recorded as “binds”.

In the case of TGTGTGTGTGTGTGTGTGTGTGTGTGTGTGTGTG (ssDNA) [(TG)17], the binding result with TDP-43 CTD WT [3] is “binds”.

CACCTTCCCCACCCTCCCCACCCTCCCCATAAGC (structured_DNA) [c-Myc I-motif]: the binding result in the series with TDP-43 CTD WT [4] is reported as “binds”.

For UUUUUUUUUUUU (ssDNA, deoxyuridine (DNA backbone) throughout) [dU12], the binding result with TDP-43 CTD WT [5] is recorded as “binds”.

With GCTTATGGGGAGGGTGGGGAGGGTGGGGAAGGTG (structured_DNA) [c-Myc G4], in the series with TDP-43 CTD WT [6], the binding result was “binds”.

For the molecule TTTTTTTTTTTT (ssDNA) [dT12], the binding result in the series with TDP-43 CTD WT [7] is “binds”.

The values are drawn from publication doi:10.64898/2025.12.22.695782.
